Reference: the supplement of paper PMC9112550, “Optimization of the antimicrobial peptide Bac7 by deep mutational scanning” (BMC Biology, 2022)

System: Escherichia coli TOP10
Assay: shrunken log2 fold change of peptide-encoding DNA abundance (4.5 h post-induction vs induction); higher = less antimicrobial activity (less host growth inhibition)
Settings: time post-induction: 4.5 h; library: site-saturation at positions 5, 18, 19, 20
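Also: peptides expressed intracellularly from a pBAD plasmid library in pooled LB shake-flask culture, induced with 0.3% L-arabinose, DNA abundance read by NGS, three biological replicates, DESeq2 with apeglm shrinkage.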

Sequence	shrunken log2 fold change
RRIRNRPPRLPRPRPRPKHSPRP	-0.187
RRIRQRPPRLPRPRPRPEENPRP	0.00965
RRIRHRPPRLPRPRPRPQQDPRP	-0.147
RRIRFRPPRLPRPRPRPTQKPRP	0.94
RRIRRRPPRLPRPRPRPFFSPRP	0.043
RRIRFRPPRLPRPRPRPINTPRP	-0.761
RRIRCRPPRLPRPRPRPWPRPRP	0.398
RRIRKRPPRLPRPRPRPYLTPRP	-0.413
RRIRCRPPRLPRPRPRPQYRPRP	-2.05
RRIRWRPPRLPRPRPRPECKPRP	0.685
RRIRCRPPRLPRPRPRPLMTPRP	-0.0133
RRIRYRPPRLPRPRPRPIRHPRP	0.0879
RRIRTRPPRLPRPRPRPKMNPRP	-0.558
RRIRRRPPRLPRPRPRPHIHPRP	-0.674
RRIRPRPPRLPRPRPRPIFSPRP	0.14
RRIRLRPPRLPRPRPRPMCYPRP	-0.294
RRIRHRPPRLPRPRPRPRMSPRP	-0.0693
RRIRWRPPRLPRPRPRPIAAPRP	0.976
RRIRARPPRLPRPRPRPEWTPRP	0.591
RRIRPRPPRLPRPRPRPNRTPRP	-0.0847
RRIRPRPPRLPRPRPRPKASPRP	0.105
RRIRLRPPRLPRPRPRPMRIPRP	0.269
RRIRMRPPRLPRPRPRPVSDPRP	2.67
RRIRGRPPRLPRPRPRPVGNPRP	0.204
RRIRPRPPRLPRPRPRPAHWPRP	0.484

Sequence	shrunken log2 fold change
RRIRFRPPRLPRPRPRPKSIPRP	-0.0406
RRIRVRPPRLPRPRPRPFTTPRP	-0.211
RRIRIRPPRLPRPRPRPQFEPRP	-0.0601
RRIRSRPPRLPRPRPRPAMLPRP	0.0679
RRIRQRPPRLPRPRPRPEFLPRP	0.025
RRIRWRPPRLPRPRPRPYFWPRP	-0.222
RRIRPRPPRLPRPRPRPYWHPRP	-0.405
RRIRTRPPRLPRPRPRPGGLPRP	-0.0407
RRIRWRPPRLPRPRPRPIDMPRP	0.0712
RRIRERPPRLPRPRPRPWWSPRP	-0.0183
RRIRCRPPRLPRPRPRPEDKPRP	-0.114
RRIRMRPPRLPRPRPRPQLWPRP	0.998
RRIRYRPPRLPRPRPRPTAHPRP	-0.466
RRIRARPPRLPRPRPRPKATPRP	0.347
RRIRPRPPRLPRPRPRPQHQPRP	-0.226
RRIRPRPPRLPRPRPRPVRAPRP	0.622
RRIRYRPPRLPRPRPRPNPDPRP	-0.407
RRIRIRPPRLPRPRPRPGIPPRP	-0.225
RRIRPRPPRLPRPRPRPTCPPRP	0.0562
RRIRFRPPRLPRPRPRPAQTPRP	0.0962
RRIRDRPPRLPRPRPRPNKAPRP	0.0205
RRIRMRPPRLPRPRPRPHQCPRP	-0.0247
RRIRWRPPRLPRPRPRPEWIPRP	0.475
RRIRTRPPRLPRPRPRPFNNPRP	-0.318
RRIRARPPRLPRPRPRPGHRPRP	0.033

Sequence	shrunken log2 fold change
RRIRNRPPRLPRPRPRPKCKPRP	-0.261
RRIRPRPPRLPRPRPRPKVWPRP	0.318
RRIRYRPPRLPRPRPRPDCLPRP	-0.209
RRIRCRPPRLPRPRPRPDNMPRP	-1.31
RRIRARPPRLPRPRPRPFFHPRP	-0.0215
RRIRNRPPRLPRPRPRPATYPRP	-1.05
RRIRMRPPRLPRPRPRPSFPPRP	-0.222
RRIRQRPPRLPRPRPRPDRQPRP	0.0104
RRIRDRPPRLPRPRPRPIHKPRP	-0.275
RRIRWRPPRLPRPRPRPPMCPRP	0.252
RRIRRRPPRLPRPRPRPVHEPRP	0.381
RRIRKRPPRLPRPRPRPTPSPRP	0.921
RRIRLRPPRLPRPRPRPLSCPRP	-0.0916
RRIRLRPPRLPRPRPRPMCPPRP	0.128
RRIRFRPPRLPRPRPRPEPAPRP	0.669
RRIRRRPPRLPRPRPRPATNPRP	0.189
RRIRMRPPRLPRPRPRPYHVPRP	-0.065
RRIRSRPPRLPRPRPRPWCPPRP	-0.549
RRIRWRPPRLPRPRPRPQHDPRP	0.202
RRIRPRPPRLPRPRPRPAFRPRP	0.211
RRIRNRPPRLPRPRPRPLDNPRP	-0.263
RRIRRRPPRLPRPRPRPMFTPRP	0.0616
RRIRDRPPRLPRPRPRPLQDPRP	0.115
RRIRQRPPRLPRPRPRPDAFPRP	0.141
RRIRQRPPRLPRPRPRPIMEPRP	-0.0496

Sequence	shrunken log2 fold change
RRIRWRPPRLPRPRPRPACLPRP	0.521
RRIRHRPPRLPRPRPRPFRKPRP	0.00884
RRIRCRPPRLPRPRPRPIIYPRP	-0.739
RRIRTRPPRLPRPRPRPHMDPRP	-0.422
RRIRTRPPRLPRPRPRPICYPRP	-0.387
RRIRIRPPRLPRPRPRPNPPPRP	0.125
RRIRLRPPRLPRPRPRPWTHPRP	-0.207
RRIRCRPPRLPRPRPRPLLRPRP	0.88
RRIRYRPPRLPRPRPRPDAMPRP	-0.0326
RRIRQRPPRLPRPRPRPLTQPRP	0.0547
RRIRDRPPRLPRPRPRPTIFPRP	0.0643
RRIRPRPPRLPRPRPRPKDGPRP	0.0462
RRIRTRPPRLPRPRPRPGTFPRP	-0.116
RRIRDRPPRLPRPRPRPRETPRP	0.567
RRIRFRPPRLPRPRPRPISTPRP	-0.24
RRIRERPPRLPRPRPRPMRHPRP	0.0434
RRIRDRPPRLPRPRPRPKEMPRP	-0.00146
RRIRMRPPRLPRPRPRPWGIPRP	0.0388
RRIRNRPPRLPRPRPRPGLIPRP	0.16
RRIRKRPPRLPRPRPRPPGTPRP	0.794
RRIRMRPPRLPRPRPRPIFAPRP	0.556
RRIRTRPPRLPRPRPRPPTMPRP	-0.0279
RRIRIRPPRLPRPRPRPVEWPRP	0.0101
RRIRSRPPRLPRPRPRPWAHPRP	-0.186
RRIRDRPPRLPRPRPRPSKVPRP	-0.152

Sequence	shrunken log2 fold change
RRIRDRPPRLPRPRPRPIRAPRP	0.0872
RRIRYRPPRLPRPRPRPWWAPRP	-0.19
RRIRSRPPRLPRPRPRPISLPRP	1.99
RRIRWRPPRLPRPRPRPAALPRP	0.257
RRIRDRPPRLPRPRPRPEFTPRP	0.174
RRIRARPPRLPRPRPRPWGMPRP	-0.00469
RRIRPRPPRLPRPRPRPWTRPRP	0.0201
RRIRYRPPRLPRPRPRPSLTPRP	-0.628
RRIRQRPPRLPRPRPRPEYAPRP	-0.042
RRIRCRPPRLPRPRPRPGQSPRP	0.0538
RRIRDRPPRLPRPRPRPDAKPRP	0.162
RRIRGRPPRLPRPRPRPPLQPRP	0.641
RRIRPRPPRLPRPRPRPIQTPRP	-0.0617
RRIRGRPPRLPRPRPRPVMWPRP	0.932
RRIRDRPPRLPRPRPRPRYDPRP	-0.284
RRIRWRPPRLPRPRPRPRDRPRP	0.909
RRIRPRPPRLPRPRPRPANAPRP	0.0662
RRIRPRPPRLPRPRPRPYVFPRP	-0.659
RRIRCRPPRLPRPRPRPNYKPRP	-0.831
RRIRFRPPRLPRPRPRPCMPPRP	-0.35
RRIRSRPPRLPRPRPRPFSMPRP	-0.0498
RRIRIRPPRLPRPRPRPIERPRP	-0.0785
RRIRMRPPRLPRPRPRPRNVPRP	0.29
RRIRVRPPRLPRPRPRPDLCPRP	0.0475
RRIRNRPPRLPRPRPRPHELPRP	-0.0632

Sequence	shrunken log2 fold change
RRIRMRPPRLPRPRPRPPDPPRP	1.25
RRIRCRPPRLPRPRPRPDGYPRP	-0.0404
RRIRGRPPRLPRPRPRPKFWPRP	0.533
RRIRQRPPRLPRPRPRPAQVPRP	0.0263
RRIRPRPPRLPRPRPRPHWQPRP	0.358
RRIRQRPPRLPRPRPRPGLRPRP	0.285
RRIRKRPPRLPRPRPRPFPAPRP	0.341
RRIRHRPPRLPRPRPRPRTRPRP	0.476
RRIRVRPPRLPRPRPRPLNNPRP	-0.733
RRIRARPPRLPRPRPRPTQGPRP	0.905
RRIRERPPRLPRPRPRPQNGPRP	-0.0634
RRIRQRPPRLPRPRPRPTLGPRP	0.269
RRIRHRPPRLPRPRPRPLWMPRP	-0.138
RRIRARPPRLPRPRPRPWHGPRP	0.0697
RRIRKRPPRLPRPRPRPALQPRP	0.493
RRIRRRPPRLPRPRPRPTRSPRP	0.341
RRIRLRPPRLPRPRPRPHDPPRP	-0.459
RRIRSRPPRLPRPRPRPHDPPRP	-0.0194
RRIRFRPPRLPRPRPRPDAMPRP	0.138
RRIRPRPPRLPRPRPRPQMQPRP	-0.254
RRIRLRPPRLPRPRPRPEMTPRP	0.276
RRIRSRPPRLPRPRPRPPMNPRP	-0.347
RRIRQRPPRLPRPRPRPNLWPRP	-0.0933
RRIRLRPPRLPRPRPRPIFTPRP	-0.206
RRIRFRPPRLPRPRPRPLFQPRP	-0.446
